Assay results: US6607880

T1: 35S-labelled transcription-translation product of p28 Bap31 cDNA
T1 chain: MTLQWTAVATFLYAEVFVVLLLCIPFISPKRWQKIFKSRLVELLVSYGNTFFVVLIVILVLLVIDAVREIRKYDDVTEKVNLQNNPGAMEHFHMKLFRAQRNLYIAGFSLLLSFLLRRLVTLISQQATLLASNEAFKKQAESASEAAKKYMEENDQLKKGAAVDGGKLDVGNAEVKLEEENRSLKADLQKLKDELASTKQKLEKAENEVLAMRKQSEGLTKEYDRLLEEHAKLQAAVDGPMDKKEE

B1: FLICE (caspase-8) (protein)
chain: SESQTLDKVYQMKSKPRGYCLIINNHNFAKAREKVPKLHSIRDRNGTHLDAGALTTTFEELHFEIKPHDDCTVEQIYEILKIYQLMDHSNMDCFICCILSHGDKGIIYGTDGQEAPIYELTSQFTGLKCPSLAGKPKVFFIQACQGDNYQKGIPVETDSEEQPYLEMDLSSPQTRYIPDEADFLLGMATVNNCVSYRNPAEGTWYIQSLCQSLRERCPRGDDILTILTEVNYEVSNKDDKKNMGKQMPQPTFTLRKKLVFPSD
B2: ICE (caspase-1) (protein)
chain: NPAMPTSSGSEGNVKLCSLEEAQRIWKQKSAEIYPIMDKSSRTRLALIICNEEFDSIPRRTGAEVDITGMTMLLQNLGYSVDVKKNLTASDMTTELEAFAHRPEHKTSDSTFLVFMSHGIREGICGKKHSEQVPDILQLNAIFNMLNTKNCPSLKDKPKVIIIQACRGDSPGVVWFKDSVGVSGNLSLPTTEEFEDDAIKKAHIEKDFIAFCSSTPDNVSWRHPTMGSVFIGRLIEHMQEYACSCDVEEIFRKVRFSFEQPDGRAQMPTTERVTLTRCFYLFPGH

Target: T1, 35S-labelled transcription-translation …

Row | Protein | amount of p20 cleavage product (Phosphorimager) | cleavage of 35S-labelled p28 Bap31 in vitro (SDS-PAGE)
1 | B1 | p28 Bap31 was more sensitive to cleavage by FLICE (caspase-8) than ICE (caspase-1) | 
2 | B2 |  | ICE (caspase-1), on the other hand, generated two products (denoted “a” and “b”) whose apparent sizes in SDS gels (approximately 27 kDA and 20 kDa, respectively)
